In experiment [1] the target is T1, base coil K4 (four heptad repeats), YS2H bait fused to Aga2 with C-terminal FLAG tag (yeast). Description: predicted from YS2H (flow cytometry of Myc and FLAG tags, Langmuir equation).
Experiment [2] addresses T1, base coil K4 (four heptad repeats), ….
Experiment [3] has as its target T2, base coil K3 (three heptad repeats), YS2H bait fused to Aga2 with C-terminal FLAG tag (yeast). Put plainly: predicted from YS2H (flow cytometry of Myc and FLAG tags, Langmuir equation).
Experiment [4] addresses T2, base coil K3 (three heptad repeats), ….
Experiment [5] has the same target. Put plainly: YS2H, Kn-Flag : En-Myc: bait on the yeast surface as Aga2 fusion, secreted prey captured by it; flow cytometry with anti-Myc antibody, MFI of the whole induced population; Flag (bait) MFI of this clone 70; K3-only control Myc MFI 8. (In flow cytometry, cells or beads pass a laser one at a time.)
The target of experiment [6] is NeGFP (partner of the row 'E3' in Figure 2d, base coil deleted, cytosolic).
For experiment [7], the target named is T2, base coil K3 (three heptad repeats), …. The source holds these as a separate data set.
In experiment [8] the target is T3, base coil K5 (five heptad repeats), YS2H bait fused to Aga2 with C-terminal FLAG tag (yeast). Put plainly: predicted from YS2H (flow cytometry of Myc and FLAG tags, Langmuir equation).
In experiment [9] the target is T2, base coil K3 (three heptad repeats), …. This is another data set of the same source.
The target of experiment [10] is T3, base coil K5 (five heptad repeats), ….

These results are taken from patent publication US20100075326A1.

Read-outs that look alike come from different tables or passages of the source.

Turning to VSALEKEVSALEKEVSALEKEVSALEKEEQKLISEEDL (modifications not checked) [acid coil E4 (four heptad repeats), secreted YS2H prey with C-terminal Myc tag], the Kd in experiment [1] is 151 nM. The molecule further came in with an MFI (anti-Myc) in experiment [2] of 68.
For the molecule VSALEKEVSALEKEVSALEKEEQKLISEEDL (modifications not checked) [acid coil E3 (three heptad repeats), secreted YS2H prey with C-terminal Myc tag], in experiment [3], the Kd is 1270 nM. Further, the MFI of complemented split eGFP, secretory pathway (K3-NeGFP-Flag : E3-CeGFP-Myc); Flag MFI 67 in experiment [4] came to 20. The molecule further had an MFI (anti-Myc) in experiment [5] of 8. Moreover, in experiment [6], the MFI of complemented split eGFP in the cytosol, control row 'E3' (NeGFP with the base coil deleted : E3-CeGFP) is 7. This molecule also displayed an MFI of complemented split eGFP in the cytosol (K3-NeGFP : E3-CeGFP, no signal sequences) in [7] of 216.
For VSALEKEVSALEKEVSALEKEVSALEKEVSALEKEEQKLISEEDL (modifications not checked) [acid coil E5 (five heptad repeats), secreted YS2H prey with C-terminal Myc tag], the dissociation constant Kd in [3] is 1290 nM; in experiment [1], 18.3 nM; in experiment [8], 0.49 nM. The MFI (anti-Myc) in experiment [9] was found to be 10; in experiment [2] it was 653; in experiment [10] it was 1200.

As usually defined, the Kd is the concentration at which binding is half-saturated.
